Assay: label from the status in PepcDB records

For “MKDLKDSLKILYQFKTDYLKVTLLLTILQAFVIGPFIYYFFFFILRVIGVPGITDANLGEVFSSPVAVIMLLILALLILLFVYYELGFFIMMAIYQLRGESYTVFKIIQRLNVKAKYFLSYQAIYFLLYFFLLLPIAGLSLPITITENLYLPHFITDELMKTTTGTWLYVIAIAIIFYISARLVFALPYFIEDKSLKISGAIRKSWKFSQKHLFFMLLKWVLIIVVIGFLVSIIATIIMLPLLLVEKITPGIAVVIAGITLTILQVIGFFAAGIFQGIIAQLLVKNAFAIEGQHAPVARNQFPHKKRFIIVAIIVFIIFSGFNIFTVNATLYEPNTKIIAHRGDTMNAVENTVEAIESAAKSGADYSEIDIQETKDHQFVVFHDMTLRRLAGSSKRVADMTLKELQQTKVKSGDYSSHIASFDEIIKTAKKNKIDLLVEVKLHGGESSDMVERLVTLLKKEKVTDKYLVQSLNQPVIEEIEKADPSLKTGIILALNIGNLPKTSADFIVLEDFSINKRLLTQAKQNDKMVFVWTVNKEKLMQMYLRKNVDGIITNYPKKAIELRESFNENDSLRSRIENRLGF”, the protein production was “failed”.

With “MSDELSDRVAQYLRWQVSDKVALLAQRYPDDTSLTLDWTDLARWDPTLAEDILDAPDSMLEYVERGIRDTPLPVDTSLGQATPRFENLPESHTTAPGEFSPSDRRGQLLALEGQVAKRTQVQPRLVEAAFECQRCGTLTRIPFEPGQFIEPFECVGCETKGPFRINPDQSRYEDYQKLLLENPSSAALGGDTSDIIAHLQGDLAGHGAIANCQDVVLVGELQFRGGGPIPEPQVVVNSVQAAGQTYQDAEFTADQRDLFERLRERPESFDVDIEDPSTADVLMAAAAPKFVSGSHPRDRQVVRGLVLQLVSASTFDGPDGSHYRGDVHVLLPGDPGTGKSVLAKWAAAVAPRSAFASGERVSGPGLTAAAVKDDFSDGGFSIEPGVLVRAHEGIAVVDELDKAGDDAIEKMHSALADQILPLSLGGQSMTLPAECGLLGVCNPLGGHFAGDESLVDALGINSPLLSRFDLIMQMRSKQDREHVRELAESMIRTWSASLKDATGQALDTADADTIDPVLSMDQYRAVLLRARQLHPTPANDRVIEALAAWFEEQKMALPERYRDALADADGQYHGPPVPVTARKLGAARRVAQAAARANLREEITMADVEVAKELVSRSLADLDIPIVHNAGLGGGDVNRREPADLSGVS” the protein production was “failed”.

In the case of “MGKPVTNEAKGVYVMSVLPNMPAAGRLEAGDRIAAIDGQPINTSEQIVSYVREKQAGDRVRVTFIRDRKQHEAELVLKPFPHHPNQIGLGVTLRTLEHHHHHH”, the protein production was “not failed”.

For “MKRNTRLLFVVPAFFAIFAMACACQGGTAGKSFTNSTGSPGEMMLVMDDQYLGSPVGEAIYEAMTEVAPALNQNEPIMAVSRVSEKDFTGFLRYIRNVLQIDINPDIFTKTSLKYGYDQWANGQLVVLINSPATDSLTAYVESNKSAIQNLFIRHELFLFGQLWQKDCSADADQRVQRMFGYHINVPADILSHKEGKDFLWMSNNQMRRRKDFLVYTFPYRGASDLGLDRMVEVRDSVLKANIEGSDAGSYPVTERMLLKHRYVYPGDQKRGEVHGIWRMEGGQMMSGPFVAQAFVDGDRVVVVEGFVYHPNEKKRDLMRQMEAALYSMRPKAEKEFDPSIIRKARWTTLK”, the protein production was “failed”.

For “MTKFYKFLISIIILALVCLIFFLAKSNILNLDSLKNLILSSGYFAPLIYIIAFALVPLTFFPDSVLAILGGSIFGLGGGFLYTSIGALIGGSISFFISRILGQSFVEKFENDKLKNIQELLKDNGFLMILLLRLIPLFPFDLISYGAGLTKISYKDFALGTLIGTIPGILVFVNLGAQWITFNKTSIYLSVSLLILFIIVSVFLKKIYINKHLAKEN”, the protein production was “failed”.

In the case of “MIRFEIHGDNLTITDAIRNYIEEKVGKLERYFNNVPNAVAHVRVKTYSNSTTKIEVTIPLKDVTLRAEERHDDLYAGIDLITNKLERQVRKYKTRVNRKHRDRGDQDIFVAEVQESTTNNHADDIESENDIEIIRSKQFSLKPMDSEEAVLQMNLLGHDFFIFTDRETDGTSIVYRRKDGKYGLIETTELEHHHHHH”, the protein production was “not failed”.

For “MLDAILSNYLYYPSILAFLFGVLMGAKYRHKIGNIFGYLILTVVIAYFLKAFPYYDLLPLSCSYLSAVIGIIIGNRLFGGKMI”, the protein production was “failed”.

With “MKISAVVVTFNRKKLLLECLNALRNQTYPLDAIFIIDGPSTDGTPEALLECGYIKELPPKKGNWSWETKNVIYSPINNKPIKVYYVRLYKDVGGSGGFYEGVKRAYEEGYNWIWLMDDDAEPREDALEKLIRYMNLPGVIALAPTVIRPTGEISKPHRGILCFKKIFPMIQIPLDESKYKSNQPVQIDFVSFVGPLIKRDAIKIVGFPKKEFFIHHDDVEYSIRLRTVGKIYLIPDSVIIHKENIKKTSLIKKRFLGKTIYRIPYNKLWKTYYGTRNLTYLGRIYSKSKFKFYFKLLKRWAVSVGAIILFDDHKIKRIQFITSAYLDGLRGKFDNEKPKRILYGGKKELEHHHHHH” the protein production was “not failed”.

In the case of “MRLLYVIKKENPMDQMPNCPKCQSEYVYHDSINFVCPDCGNEWDNNEIQESDDDQLIVKDSNGNLLAEGDNVLLIKDLKLKGSSEVLKKGTKFKNIRLVNGDHNVDCGKIMLKSEFLKKALEHHHHHH”, the protein production was “not failed”.

For “MKAKHLTQLLKASFLSCSMIATTLSMAQLPPAPQEKYGDGRVSEFYTWKSAIPAQPGKLLRTEAVHNPYIRLANDSQAIRILYSSTSGKDSKTPIVVSGSIHLPKGNPPKEGWPVVLWAHGTVGLADACAPSWSGRSYRDVQYLNRWLNEGFAVVATDYEGLGVAGPHLLINNPMLAYSILDSGRAALKTKLPLANKFVIVGQSQGGAGAVAASSYSATYAPDLNIKGSIGTGVIYKDPEATPEKNQLKLNPYEVSPSLAYGIYSFLVTQSLYPEIKTEEIFTPEAAPLVEQARNACLTSFMGDIQTAGLSPAQAYKPNPPTSYKKLQEKESNDYGYYPTLKISHPLFIGTGANDRTPDARSQMKLVADACKAGTVVEGHLYHGLGHSETVNASLKDSIPFAKKVIAGEKIQAICKPDLQ”, the protein production was “failed”.

For “MTDAEYGLPRRSLLAGAAGAGAAFALPAGAAQAAPAASPQAGAERRHPRNWPDPEPYGAADTRADLWPREDNSFVLPLELRPRDQERGTVWMRDTYVNCFVVDGRPLYVATGTTRVPGLEAAGPWNDGIFVWLAPSLDGPWRLADTTGIRPGAERGKVWSPEFAGENRPGRTVVAPWQEYWHDEQFGKRGQAWAPELHYFRDTWYLVACMGDHSRKVGSFMLVSEGGVEGPYRLVEGNLDKPFGDSFIGGPKFIEPGAYHHIDGGLFSEGDDAWLVLHNDLYAKFRDDMEDIVTTTDLPRFRQTPYSPEPYLEGAYVFKYRGKYHLVHAAWDRTSVNADGTVRQAYDVPAAGRVQYQYDAIVAVADRFEGPYSKRYTAGVGAGHNNFFVDHRGGLWATYFLNPAAGYWSGASRVAESAVPGVVRLEWTGPAGGRLYVKRGSGGPGSGH”, the protein production was “failed”.

With “MNNLFAAPTPEEHAALLQEIGPLPLSGQAWPDWVRILAWIVLAVIGVQIVTTAIGLPPGQVNPVLAGTIILCFLGLALVSWHMQISVTRIDESGLRQTWITRREVAWQDIQFAKFVPLLFSKRLVVFTRHGRPIVFQGGTRDLQVAFAKISLLYRRKR” the protein production was “failed”.

With “MISNALKQGNLSPELEEKLVCMQKQQENANSTNEWETCSRGSVNEEALTPSRQTDDTEWKIRTSLRRPNAMTTSSQFNRILKKNRSKNDEVAELGEQKQSQLERHKELLKKNILRKRSLLERNLQSEIHEDVKTKVQRHVRPLSNASPDEQSENERSGEPNLDFKR” the protein production was “failed”.

— a protein production outcome set (Wang et al. 2014)
